Six molecules from patent US20130302346A1 (LEXICON PHARMACEUTICALS, published 2013) can be followed below.

Experiment [1] concerns the target T1, Human NOTUM (human, UniProt Q6P988 20-496).
T1 construct: also called human notum pectinacetylesterase; recombinant human NOTUM
T1 sequence: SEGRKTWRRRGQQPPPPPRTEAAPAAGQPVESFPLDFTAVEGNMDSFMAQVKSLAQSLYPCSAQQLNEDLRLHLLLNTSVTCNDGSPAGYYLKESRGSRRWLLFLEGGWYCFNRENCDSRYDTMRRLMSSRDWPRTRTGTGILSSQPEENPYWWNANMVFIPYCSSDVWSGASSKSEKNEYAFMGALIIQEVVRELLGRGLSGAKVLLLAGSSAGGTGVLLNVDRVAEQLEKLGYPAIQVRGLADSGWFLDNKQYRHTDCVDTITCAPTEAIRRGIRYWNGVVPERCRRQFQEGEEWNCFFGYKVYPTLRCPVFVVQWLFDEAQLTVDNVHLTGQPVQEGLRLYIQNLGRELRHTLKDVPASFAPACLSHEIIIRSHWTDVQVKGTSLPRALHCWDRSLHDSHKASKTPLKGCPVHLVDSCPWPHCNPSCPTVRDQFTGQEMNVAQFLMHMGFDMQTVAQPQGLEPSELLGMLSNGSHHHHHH
As to the kind of experiment: Biacore 3000. As for the experimental part:
(§1) Binding affinities of certain anti-NOTUM MAbs was determined using a Biacore 3000. In order to obtain meaningful affinity values for binding to multimeric […] NOTUM protein, antibody FAb fragments were generated by digestion of whole IgG with the protease Ficin, followed by removal of undigested IgG and Fc fragments by protein A affinity chromatography. Affinity values for binding of FAbs and whole IgG to human NOTUM corresponded, and their affinity values were in the single to low double digit nM range, as shown in Table 3.
In general terms: SPR reads the build-up and loss of mass on a sensor chip optically.

Experiment [2] addresses T2, Mouse NOTUM (mouse, UniProt Q8R116 20-503).
T2 construct: also called recombinant mouse NOTUM
T2 sequence: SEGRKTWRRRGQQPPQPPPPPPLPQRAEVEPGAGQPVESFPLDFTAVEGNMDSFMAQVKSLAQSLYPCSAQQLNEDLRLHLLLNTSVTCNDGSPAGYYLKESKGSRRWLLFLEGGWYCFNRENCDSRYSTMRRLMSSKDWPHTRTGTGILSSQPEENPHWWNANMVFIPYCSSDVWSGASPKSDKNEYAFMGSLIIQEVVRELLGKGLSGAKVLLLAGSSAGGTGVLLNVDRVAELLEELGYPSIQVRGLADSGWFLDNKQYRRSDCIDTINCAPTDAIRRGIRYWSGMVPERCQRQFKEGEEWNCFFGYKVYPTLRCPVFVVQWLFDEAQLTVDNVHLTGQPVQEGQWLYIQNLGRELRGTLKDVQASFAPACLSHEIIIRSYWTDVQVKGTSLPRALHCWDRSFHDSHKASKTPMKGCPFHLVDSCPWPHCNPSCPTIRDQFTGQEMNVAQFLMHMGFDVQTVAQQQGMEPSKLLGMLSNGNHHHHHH
As to the kind of experiment: Biacore 3000. How it is done: as §1

Experiment [3] has as its target T1, Human NOTUM. The experiment in a line: cell-based or functional assay.
For experiment [4], the target named is T2, Mouse NOTUM. As to the kind of experiment: cell-based or functional assay.
The next experiment has as its target T3, Rhesus monkey NOTUM (rhesus monkey, UniProt Q6P988 20-491 (human entry)).
T3 construct: Produced by transient transfection; also called Rhesus macaque NOTUM; rhesus NOTUM
T3 chain: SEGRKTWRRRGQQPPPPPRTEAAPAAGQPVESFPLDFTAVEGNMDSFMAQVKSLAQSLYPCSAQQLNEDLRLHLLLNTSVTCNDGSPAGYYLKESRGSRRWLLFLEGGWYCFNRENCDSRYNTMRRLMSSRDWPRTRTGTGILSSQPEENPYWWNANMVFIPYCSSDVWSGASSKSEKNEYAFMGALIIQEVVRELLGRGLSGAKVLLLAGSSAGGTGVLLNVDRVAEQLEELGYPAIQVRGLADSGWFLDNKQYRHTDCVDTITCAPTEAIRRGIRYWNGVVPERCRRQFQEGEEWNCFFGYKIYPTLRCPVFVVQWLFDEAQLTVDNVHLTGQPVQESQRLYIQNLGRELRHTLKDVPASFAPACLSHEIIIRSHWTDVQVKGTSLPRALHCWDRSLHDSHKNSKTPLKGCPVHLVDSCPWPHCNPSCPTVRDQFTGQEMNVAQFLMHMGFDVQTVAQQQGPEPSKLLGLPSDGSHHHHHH
As to the kind of experiment: ELISA.

The target of a further experiment is T4, Guinea pig NOTUM (guinea pig, UniProt Q6P988 21-496 (human entry)).
T4 construct: Expressed by transient transfection
T4 chain: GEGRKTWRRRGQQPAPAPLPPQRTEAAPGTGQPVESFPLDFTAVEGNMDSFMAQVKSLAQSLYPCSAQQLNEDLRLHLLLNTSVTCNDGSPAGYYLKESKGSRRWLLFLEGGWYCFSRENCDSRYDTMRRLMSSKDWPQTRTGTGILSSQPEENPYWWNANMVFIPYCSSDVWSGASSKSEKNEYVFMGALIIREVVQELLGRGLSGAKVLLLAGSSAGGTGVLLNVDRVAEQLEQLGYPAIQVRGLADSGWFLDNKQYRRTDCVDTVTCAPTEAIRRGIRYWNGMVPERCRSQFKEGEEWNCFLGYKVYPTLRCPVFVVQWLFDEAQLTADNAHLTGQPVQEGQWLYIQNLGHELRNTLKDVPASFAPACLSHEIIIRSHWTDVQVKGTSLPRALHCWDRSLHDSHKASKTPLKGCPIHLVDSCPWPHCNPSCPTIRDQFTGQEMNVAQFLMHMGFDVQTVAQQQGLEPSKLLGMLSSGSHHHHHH
As to the kind of experiment: ELISA.

Another experiment addresses T5, Human NOTUM D137A/R139A (human, UniProt Q6P988 20-496).
T5 construct: Alanine mutant, expressed and secreted after transient transfection; little to no activity in the OPTS assay
T5 sequence: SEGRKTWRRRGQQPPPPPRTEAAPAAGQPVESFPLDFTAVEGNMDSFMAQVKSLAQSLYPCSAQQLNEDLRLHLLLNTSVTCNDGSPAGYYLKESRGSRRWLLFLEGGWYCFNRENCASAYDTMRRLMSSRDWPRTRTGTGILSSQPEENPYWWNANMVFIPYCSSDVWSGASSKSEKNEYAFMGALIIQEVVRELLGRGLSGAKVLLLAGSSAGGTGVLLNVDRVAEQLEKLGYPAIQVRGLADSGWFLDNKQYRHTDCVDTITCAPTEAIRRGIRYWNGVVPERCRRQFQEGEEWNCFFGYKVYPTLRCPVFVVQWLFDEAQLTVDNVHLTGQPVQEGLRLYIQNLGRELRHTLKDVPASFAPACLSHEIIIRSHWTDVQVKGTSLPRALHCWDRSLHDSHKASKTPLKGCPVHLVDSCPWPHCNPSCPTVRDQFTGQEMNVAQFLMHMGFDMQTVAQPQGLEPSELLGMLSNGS
As to the kind of experiment: ELISA. In general terms: In an ELISA, binding on a coated surface is turned into a signal by an enzyme label.

The next experiment has as its target T6, Human NOTUM R144A/R145A (human, UniProt Q6P988 20-496).
T6 construct: Alanine mutant, expressed and secreted after transient transfection
T6 sequence: T5 sequence with A118D, A120R, R125A, R126A
The experiment in a line: ELISA.

Experiment [5] addresses T1, Human NOTUM. The experiment in a line: cell-based or functional assay. The source holds these as a separate data set.
The target in experiment [6] is T2, Mouse NOTUM. The experiment in a line: cell-based or functional assay. This is another data set of the same source.
In experiment [7] the target is T1, Human NOTUM. As to the kind of experiment: cell-based or functional assay. The source holds these as a separate data set.
Experiment [8] concerns the target T1, Human NOTUM. The experiment in a line: ELISA (column 'Human NOTUM binding').

Residue numbers refer to the chain shown, from its start. Like-named read-outs stand apart in the source and are kept apart here.

B1: 1.802 Fab (Fab, V domains shown)
VH: EVQLVESGGGLVKPGGSLKLSCAASGFTFSDYGMHWFRQAPEKGLEWVAYISSGSRTVYYADTVKGRFTISRDNAKNTLSLQMTSLRSEDTAMYYCARKHYNGGYFDVWGTGTTVTVSS
VL: DIVLTQSPASLAVSLGQRATISCRASKIVSTSGYSYMHWYQQKPGQPPKLLIYLASNLESGVPARFSGSGSGTDFTLNIHPVEEEDAATYYCQHSRELPPTFGSGTKLEIKR
notes: Fab made by digestion of whole IgG (mouse IgG1) with ficin
By Kd is commonly meant the concentration at which binding is half-saturated. In general, kon refers to a measure of how fast the partners come together. With B1, in the experiment with Human NOTUM [1], the Kd was found to be 0.00091 µM and the on-rate (kon) stood at 899000 M⁻¹ s⁻¹. Besides, the binding result in the experiment with Mouse NOTUM [2] is “no binding”.

B2: MAb 1.731 (antibody, IgG1, V domains shown)
VH: EVQLQQSGPELVKPGASVKVSCKASGYPFTDYFIHWVKQTHGKSLEWIGYFFPKNGANGYNQKFEGKVTLTVDKSSSTAYMELRSLTSEDSAVYYCARRYGNYYSMDYWGQGTSVTVSS
VL: SFVMTQTPKFLLVSAGDRVTITCKASQSVGDDVAWYQQKPGQSPTLLIYRVSNRYTGVPDRFTGSGYGTDFTFTINTVQAEDLAVYFCQQDYSSPYTFGGGTQLEVKR
On to B2, for which, in the experiment with Human NOTUM [3], the “OPTS IC50 (nM; human NOTUM)” value is greater than 167 nM and the “Wnt signaling IC50 (nM; human NOTUM)” value was found to be 15.5 nM. Also, the “OPTS IC50 (nM; mouse NOTUM)” value with Mouse NOTUM [4] is 197 nM.

B3: MAb 2.78 (antibody, V domains shown)
VH: DVQLVESGGGLVQPGGSRKLSCAASGFTFSSFGMHWVRQAPEKGLEWVAYITSGSGAIYYADTVRGRFTISRDTPKNTLFLQMTSLRSEDTAMYYCARSADGLDYWGQGTSVTVSS
VL: DIQMTQSPASLYVSVGETVTITCRASENIYSNLAWYQQKQGKSPQLLVYGATNLADGVPSRFSGSGSGTQYSLKINSLKSEDFGSYYCQHFWGTPFTFGSGTKLEIKR
notes: Mouse monoclonal antibody from Campaign 2 (raised against mouse NOTUM), IgG2b
B3: the binding result with Rhesus monkey NOTUM was “binds”. The binding result in the experiment with Guinea pig NOTUM is given as “binds”. Also, the binding result with Human NOTUM D137A/R139A was “no binding”. In addition, in the experiment with Human NOTUM R144A/R145A, the binding result was “no binding”. In the experiment with Human NOTUM [5], the “OPTS IC50 (nM; human NOTUM)” value was 15.5 nM and the “Wnt signaling IC50 (nM; human NOTUM)” value is 45.9 nM. In the experiment with Mouse NOTUM [6], the “OPTS IC50 (nM; mouse NOTUM)” value turned out to be 35.6 nM and the “Wnt signaling IC50 (nM; mouse NOTUM)” value stood at 3.75 nM. In the experiment with Human NOTUM [1], this molecule gave a Kd of 0.0176 µM and a kon of 47900 M⁻¹ s⁻¹.

B4: 2.78 Fab (Fab, V domains shown)
VH: B3 VH
VL: B3 VL
notes: Fab made by digestion of whole IgG (mouse IgG2b) with ficin
One may read the koff as a measure of how fast the partners let go of each other. In the experiment with Human NOTUM [1], B4 returned a Kd of 0.0154 µM, an off-rate constant (koff) of 0.00136 s⁻¹ and an on-rate constant (kon) of 87700 M⁻¹ s⁻¹. In the experiment with Mouse NOTUM [2], this molecule returned an equilibrium dissociation constant (Kd) of 0.00499 µM and an on-rate constant (kon) of 39100 M⁻¹ s⁻¹.

B5: MAb 2.1029 (antibody, IgG2a, V domains shown)
VH: QVQLKESGPGLVAPSQSLSITCTVSGFSLTSYGVHWVRQPPGKGLEWLGVIWAGGSTNYNSALMSRLSISKDNSKSQVFLKMNSLQTDDTAIYFCARDGDYGTIYAMDYWGQGTSVTVSS
VL: DIQMTQTTSSLSASLGDRVTISCRASQDISNYLNWYQQKPDGTVKLLIYYTSRLHSGVPSRFTGSGSGTDYSLTISNLEQEDIATYFCQQGKTLPRTFGGGTMLEIKR
notes: Mouse monoclonal antibody from Campaign 2, IgG2a
Take B5: the binding result in the experiment with Rhesus monkey NOTUM is “binds”. Besides, the binding result with Guinea pig NOTUM is “binds”. In the experiment with Human NOTUM [5], the “OPTS IC50 (nM; human NOTUM)” value came out at 5.77 nM and the “Wnt signaling IC50 (nM; human NOTUM)” value was determined as 14 nM. For the same molecule, in the experiment with Mouse NOTUM [6], the “OPTS IC50 (nM; mouse NOTUM)” value was determined as 29.2 nM. In addition, in the experiment with Human NOTUM [1], the Kd came out at 0.00599 µM and the on-rate constant (kon) turned out to be 151000 M⁻¹ s⁻¹. Further, the “IC50, neutralization in the Wnt signaling assay” value with Human NOTUM [7] amounted to 0.014 µM.

B6: MAb 2.55 (antibody, IgG2a, V domains shown)
VH: EVQLQQSGTVLARPGALVKMSCKASGYTFTSYWMHWVKQRPGQGLEWIGAIYPGKSDTRYNQKFKDKAKLTAVTSTSTAYMDLSSLTDEDSAVYYCSRRYGNFYAMDYWGQGTSVTVSS
VL: SIVMTQTPKFLLVSAGDRVTMTCKASQSVSNDVAWYQQKPGQSPELLIYYASDRYTGVPDRFTGSGYGTDFTLTISTVQAEDLAVYFCQQDYSSPYTFGGGTKLETKR
notes: as for B5
Turning to B6, the “OPTS IC50 (nM; mouse NOTUM)” value with Mouse NOTUM [6] was 26.1 nM. In addition, the binding result with Human NOTUM [8] is “binds”.
